In US20020081652A1:
Each block holds one substance with its values, some of them ahead of it.

Key:
mAb 198 [1] = assay: cell-based or functional assay
mAb 198 [2] = assay: competition ELISA: polypeptide preincubated with mAb 198, binding of mAb 198 to coated Torpedo AChR read
mAb 198 [3] = assay: competition ELISA: fragment preincubated with mAb 198, binding of mAb 198 to coated Torpedo AChR read
[4] = target: human muscle-type AChR on TE671 cells (human) (UniProt P02708); assay: cell-based or functional assay

Substance: Hα1-121 fused to glutathione S-transferase (GST) at the N-terminus (from UniProt P02708 21-141) (receptor)
protection of TE671 cells against AChR degradation induced by mAb 198 (residual α-BTX binding sites) (mAb 198 [1]): 100 µg/mL

IC50 (mAb 198 [2]): 100 nM
Substance: Hα1-121+p3A fused to glutathione S-transferase (GST) at the N-terminus (receptor)

IC50 (mAb 198 [2]): 180 nM
IC50 (mAb 198 [3]): 1300 nM
Substance: Hα1-210+p3A fused to glutathione S-transferase (GST) at the N-terminus (from UniProt P08515 1-218) (receptor)

Substance: mAb 198 (antibody)
residual AChR on TE671 cells (α-BTX binding sites) after 3 h incubation with 1 µg/ml mAb [4]: 41%
